In FireProtDB:
Several values for one entry are separate records, joined by “and”; a condition that tells them apart may be missing. Equal entries are not always repeated.

Conditions: whole UniProt chain shown
[1] = Staphylococcus aureus (strain NCTC 8325 / PS 47), pH 8.5, Urea, fluorescence, Tris-Cl, transition: 2, reversible: yes
[2] = Rattus norvegicus, pH 7.5, Thermal, CD, phosphate 10 mM, NaF 100 mM, reversible: yes
[3] = Pyrococcus furiosus (strain ATCC 43587 / DSM 3638 / JCM 8422 / Vc1), pH 7, 40 °C, GdnHCl, CD, Tris-HCl 20 mM, reversible: yes
[4] = Pyrococcus furiosus (strain ATCC 43587 / DSM 3638 / JCM 8422 / Vc1), pH 7, 60 °C, GdnHCl, CD, Tris-HCl 20 mM, reversible: yes
[5] = Staphylococcus aureus, pH 7, 30 °C, GdnHCl, CD, Sodium phosphate/Sodium sulfate 1.0 mM/10 mM/, reversible: yes
[6] = Staphylococcus aureus, pH 7, Thermal, DSC, phosphate 100 mM, reversible: yes(75%)
[7] = Staphylococcus aureus, pH 7.5, 25 °C, Urea, CD, Tris-HCl 0.1 M, KCl 0.2 M, reversible: yes
[8] = Saccharolobus solfataricus (strain ATCC 35092 / DSM 1617 / JCM 11322 / P2), pH 5.5, Thermal, CD, Acetate 50 mM

B1: Putative peptidyl-prolyl cis-trans isomerase wild type, Q2FZU9 (protein)
chain: MANYPQLNKEVQQGEIKVVMHTNKGDMTFKLFPNIAPKTVENFVTHAKNGYYDGITFHRVINDFMIQGGDPTATGMGGESIYGGAFEDEFSLNAFNLYGALSMANSGPNTNGSQFFIVQMKEVPQNMLSQLADGGWPQPIVDAYGEKGGTPWLDQKHTVFGQIIDGETTLEDIANTKVGPQDKPLHDVVIESIDVEE
In the case of B1, the denaturant m value [1] is reported as 0.85 kcal/mol/M and 1.18 kcal/mol/M, the “denaturant midpoint (higher = more stable)” value (shortened to “denaturant midpoint”) [1] is reported as 3.19 M and 1.83 M and the unfolding free energy [1] is reported as 2.66 kcal/mol and 2.17 kcal/mol.

B2: Methylated-DNA--protein-cysteine methyltransferase wild type, Q97VW7 (protein)
chain: MLVYGLYKSPLGYITVAKDDKGFIMLDFCDCVEGNSRDDSSFTEFFHKLDLYFEGKPINLREPINLKTYPFRLSVFKEVMKIPWGKVMTYKQIADSLGTSPRAVGMALSKNPILLIIPCHRVIAENGIGGYSRGVKLKRALLELEGVKIPE
With B2 the Tm (Saccharolobus solfataricus (strain ATCC 35092 / DSM 1617 / JCM 11322 / P2), pH 7.4, Thermal, DSF, PBS, transition: 2) was 82.9 °C.

B3: Homeobox protein Nkx-2.1 wild type, P23441 (protein)
chain: MSMSPKHTTPFSVSDILSPLEESYKKVGMEGGGLGAPLAAYRQGQAAPPAAAMQQHAVGHHGAVTAAYHMTAAGVPQLSHSAVGGYCNGNLGNMSELPPYQDTMRNSASGPGWYGANPDPRFPAISRFMGPASGMNMSGMGGLGSLGDVSKNMAPLPSAPRRKRRVLFSQAQVYELERRFKQQKYLSAPEREHLASMIHLTPTQVKIWFQNHRYKMKRQAKDKAAQQQLQQDSGGGGGGGGGAGCPQQQQAQQQSPRRVAVPVLVKDGKPCQAGAPAPGAASLQGHAQQQAQQQAQAAQAAAAAISVGSGGAGLGAHPGHQPGSAGQSPDLAHHAASPAALQGQVSSLSHLNSSGSDYGAMSCSTLLYGRTW
For B3, the unfolding free energy (Rattus norvegicus, pH 7.5, 25 °C, Urea, CD, phosphate 10 mM, NaF 100 mM, reversible: yes) was 1.26 kcal/mol, the Tm [2] was 42.8 °C and the unfolding free energy [2] was 1.44 kcal/mol.

B4: Cytochrome b5 type B wild type, P04166 (protein)
chain: MATPEASGSGRNGQGSDPAVTYYRLEEVAKRNTAEETWMVIHGRVYDITRFLSEHPGGEEVLLEQAGADATESFEDVGHSPDAREMLKQYYIGDVHPNDLKPKDGDKDPSKNNSCQSSWAYWIVPIVGAILIGFLYRHFWADSKSS
In the case of B4, the “denaturant midpoint” value (Rattus norvegicus, pH 7, 25 °C, GdmSCN, UV/visible spectrophotometer, MOPS 30mM) is reported as 2.04 M and the Tm (Rattus norvegicus, pH 7, Thermal, UV/visible spectrophotometer, Potassium phosphate 50mM) is reported as 85.5 °C.

B5: Scaffolding protein wild type, P26748 (protein)
chain: MEPTTEIQATEDLTLSGDHAAASADSLVVDNANDNAGQEEGFEIVLKDDETAPKQDPAKNAEFARRRIERKRQRELEQQMEAVKRGELPESLRVNPDLPPQPDINAYLSEEGLAKYDYDNSRALAAFNAANTEWLMKAQDARSNAVAEQGRKTQEFTQQSAQYVEAARKHYDAAEKLNIPDYQEKEDAFMQLVPPAVGADIMRLFPEKSAALMYHLGANPEKARQLLAMDGQSALIELTRLSERLTLKPRGKQISSAPPADQPITGDVSAANKDAIRKQMDAAASKGDVETYRKLKAKLKGIR
In the case of B5, the Tm (Salmonella phage P22, pH 7.6, Thermal, Fluorescence, phosphate 0.3 micro M, NaCl 0.3 micro M) is reported as 58 °C.

B6: Pyrrolidone-carboxylate peptidase wild type, O73944 (protein)
chain: MKVLVTGFEPFGGEKINPTERIAKDLDGIKIGDAQVFGRVLPVVFGKAKEVLEKTLEEIKPDIAIHVGLAPGRSAISIERIAVNAIDARIPDNEGKKIEDEPIVPGAPTAYFSTLPIKKIMKKLHERGIPAYISNSAGLYLCNYVMYLSLHHSATKGYPKMSGFIHVPYIPEQIIDKIGKGQVPPSMCYEMELEAVKVAIEVALEELL
In the case of B6, the denaturant m value [3] is reported as 4.66 kcal/mol/M, the “denaturant midpoint” value [3] is reported as 0.4 M and the unfolding free energy [3] is reported as 1.82 kcal/mol. For the same protein, the denaturant m value [4] was 4.13 kcal/mol/M, the “denaturant midpoint” value [4] was 3.2 M and the unfolding free energy [4] was 13 kcal/mol.

B7: wild type, Q9EYL5 (protein)
chain: MTKKLLTLFIVSMLILTACGKKESATTSSKNGKPLVVVYGDYKCPYCKELDEKVMPKLRKNYIDNHKVEYQFVNLAFLGKDSIVGSRASHAVLMYAPKSFLDFQKQLFAAQQDENKEWLTKELLDKHIKQLHLDKETENKIIKDYKTKDSKSWKAAEKDKKIAKDNHIKTTPTAFINGEKVEDPYDYESYEKLLKDKIK
For B7, the “denaturant midpoint” value [5] was 1.66 M, the unfolding free energy [5] was 8 kcal/mol and the unfolding free energy (Staphylococcus aureus, pH 7, 30 °C, Thermal, DSC, phosphate 100 mM, reversible: yes(75%)) was 11.6 kcal/mol and 15.8 kcal/mol. For the same protein, the unfolding free energy (Staphylococcus aureus, pH 7, 30 °C, Thermal, Fluorescence, Sodium phosphate 100 mM, EDTA 1 mM, reversible: yes) was 11.1 kcal/mol, the unfolding free energy (Staphylococcus aureus, pH 7, 30 °C, Thermal, Fluorescence, Sodium phosphate 100 mM, reversible: yes) was 7 kcal/mol and the unfolding free energy (Staphylococcus aureus, pH 7, 30 °C, Thermal, Fluorescence, phosphate 100 mM, reversible: yes(75%)) was 8.29 kcal/mol and 12.6 kcal/mol. For the same protein, the Tm [6] was 68.4 °C, the “heat capacity change of unfolding” value [6] was 2.22 kcal/mol/K and the “unfolding enthalpy (calorimetric)” value [6] was 148 kcal/mol. The “unfolding enthalpy (van 't Hoff)” value [6] was 137 kcal/mol, the “denaturant midpoint” value [7] was 4.2 M and 5.6 M and 5.62 M and the unfolding free energy [7] was 8.7 kcal/mol and 12.3 kcal/mol and 12.9 kcal/mol.

B8: Acylphosphatase wild type, Q97ZL0 (protein)
chain: MKKWSDTEVFEMLKRMYARVYGLVQGVGFRKFVQIHAIRLGIKGYAKNLPDGSVEVVAEGYEEALSKLLERIKQGPPAAEVEKVDYSFSEYKGEFEDFETY
Protein B8 has an unfolding free energy (Saccharolobus solfataricus (strain ATCC 35092 / DSM 1617 / JCM 11322 / P2), pH 5.5, 28 °C, GdnHCl, CD, Acetate 50 mM) of 11.6 kcal/mol, an unfolding free energy (Saccharolobus solfataricus (strain ATCC 35092 / DSM 1617 / JCM 11322 / P2), pH 5.5, 81 °C, GdnHCl, CD, Acetate 50 mM) of 4.94 kcal/mol and a Tm [8] of 101 °C. For the same protein, the “heat capacity change of unfolding” value [8] was 1.15 kcal/mol/K and the “unfolding enthalpy (van 't Hoff)” value [8] was 105 kcal/mol.

B9: Cytochrome b5 wild type, P00173 (protein)
chain: MAEQSDKDVKYYTLEEIQKHKDSKSTWVILHHKVYDLTKFLEEHPGGEEVLREQAGGDATENFEDVGHSTDARELSKTYIIGELHPDDRSKIAKPSETLITTVESNSSWWTNWVIPAISALVVALMYRLYMAED
Work on B9 yielded a Tm (Rattus norvegicus, pH 7, Thermal, UV spectroscopy, Sodium phosphate 50 mM, reversible: Yes) of 93.1 °C.

B10: Cytidine deaminase wild type, Q9S3M0 (protein)
chain: MDVEKLIAESKKAREQAYVPYSKFPVGAALLAEDGTIYHGCNIENSAYSMTNCAERTAFFKAVSDGVRSFKALAVVADTEGPVSPCGACRQVIAEFCNGSMPVYLTNLKGDIEETTVAKLLPGAFSKEDLSYAAEQ
In the case of B10, the unfolding free energy (Sporosarcina psychrophila, pH 7, 25 °C, GdnHCl, CD, potassium phosphate 20 mM, reversible: no) is reported as 3 kcal/mol.

B11: Gastrotropin wild type, P80020 (protein)
chain: MAFTGKYEFESEKNYDEFMKRLGLPDEVIERGRNFKIITEVQQDGENFTWSQSYSGGNIMSNKFTIGKECEMQTMGGKKFKATVKMEGGKVVADFPNYHQTSEVVGDKLVEISTIGDVTYERVSKRVA
B11 showed an unfolding free energy (Rattus norvegicus, pH 8, 25 °C, Urea, CD, NaH2PO4 25 mM/, NaCl 75 mM, reversible: Yes) of 4.39 kcal/mol and an unfolding free energy (Rattus norvegicus, pH 8, 25 °C, Urea, Fluorescence, NaH2PO4 25 mM/, NaCl 75 mM, reversible: Yes) of 4.71 kcal/mol.
